# From the supplement of paper PMC6755084
# System: F1*sub RNA substrate (template-directed ligation)
# Experiment: fraction ligated after 30 min (ligated reads / total reads); higher = more ligase activity; sequences stand for … in GAGACCGCAACTGAAAAGTTGT…AGTTCTGCACGTAGAAGCAAAAGGC
# Settings: 42 °C
# Method in brief: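 Ligase ribozyme variants were made from oligo-pool templates by PCR amplification, T7 transcription and gel purification. After gel separation, ligated and unligated bands were reverse transcribed with barcoded primers and sequenced on a MiSeq, with core bases filtered at quality ≥20. The fraction ligated for each variant was the number of ligated reads divided by total reads.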
row,Sequence,fraction ligated
1,TTCATTGTCGTAAGACACTTTGGATGGGTTG [3d335],0.285
2,TATCACTTGTCGTAAGACATTTGGATGGTTA [3d2227],0.0433
3,ATCACTTGTCGTAAGACACTTTGAGGGTTGA [3d262],0.0273
4,TATCATTGTCTAAGACACTTGGATGGGTTGA [3d1194],0.78
5,ATCACTTGTCGTAAGACACTTTGGATGGGTT [3d275],0.392
6,TATCACTTGTCGTAAGACACTTTATGGGTTGA [2d283],0.0284
7,ACACTTGTCGAAGACACTTTGGATGGGTTGA [3d32],0.475
8,TATCACTTGTCGTAGACCTTTGGATGGGTTG [3d2027],0.777
9,TATCATTGTCGTAAGACACTTTGGATGGGTT [3d1291],0.0919
10,TATCCTTGTCGAAGACACTTGGATGGGTTGA [3d1035],0.775
11,TATCATTGTCGTAAGACACTTTGAGGGTTGA [3d1278],0.00985
12,TATCATTGTGTAAGACACTTTGGAGGGTTGA [3d1183],0.0175
13,TATACTTGTCGTAAGACCTTTGGTGGGTTGA [3d913],0.0382
14,TATACTTTCGTAAGCACTTTGGATGGGTTGA [3d801],0.539
15,TACACTTGTCGTAAACACTTTGGATGGTTGA [3d679],0.101
16,TATCACTGTCGTAAGACACTTTGTGGGTTGA [3d1448],0.0145
17,TACACTTGTCTAAGACACTTTGGAGGGTTGA [3d642],0.115
18,TACACTTGTCGTAAGACACTTTGGAGGGTTG [3d733],0.0821
19,TACACTTGTGTAAGACACTTTGGATGGGTTG [3d631],0.145
20,TATCACTTGTGTAAGACCTTTGGTGGGTTGA [3d1774],0.157
21,TATCACTGTCGAAGACCTTTGGATGGGTTGA [3d1376],0.798
22,TATCACTGTCGAAGACACTTTGATGGGTTGA [3d1379],0.75
23,TATACTTGTCGTAAACACTTTGGATGGGTTG [3d892],0.0953

row,Sequence,fraction ligated
1,TTCACTTGTGTAGACACTTTGGATGGGTTGA [3d389],0.762
2,TATCACTTCGTAAGCACTTTGGATGGGTTGA [3d1316],0.797
3,TATCACTTGTCTAAGAACTTTGGAGGGTTGA [3d1860],0.108
4,TATCACTTTGTAAGACATTTGGATGGGTTGA [3d1471],0.837
5,TATACTTGTCGTAAGCATTTGGATGGGTTGA [3d895],0.747
6,TATACTTGTCGTAAGACACTTTGGATGGTTGA [2d87],0.127
7,TTCACTTGTCGTAAGAACTTTGGATGGGTTA [3d468],0.0936
8,TATCACTTGTCGAAGCACTTTGGATGGGTTG [3d1934],0.783
9,TATACTTGTCGTAAGAACTTTGGATGGGTTG [3d910],0.724
10,TATCACTTGTCGTAAGAACTTTATGGGTTGA [3d2166],0.067
11,TTCACTTGTCGTAAACACTTTGGAGGGTTGA [3d448],0.0223
12,TATATTGTCGTAAGACACTTTGGATGGGTTGA [2d70],0.61
13,TATCATTGTCGTAGAACTTTGGATGGGTTGA [3d1217],0.864
14,TATACTTGTCGTAGACACTTTGGTGGGTTGA [3d878],0.0282
15,TATTTGTCGTAAGACACTTTGGATGGGTTGA [3d738],0.762
16,TATCACTTGCTAAGACACTTTGGATGGGTTG [3d1612],0.8
17,TATACTGTCGTAAGACACTTTGGATGGGTTG [3d795],0.683
18,TATCCTTGTCGTAAGACACTTGGATGGGTTA [3d1102],0.402
19,TATCATTGTCGTAAGACACTTTGATGGGTTA [3d1280],0.158
20,TACACTTGTCGTAAGAACTTTGGATGGGTTA [3d698],0.00405
21,TATACGTCGTAAGACACTTTGGATGGGTTGA [3d777],0.735
22,TATCACTTGTCGTAAACCTTGGATGGGTTGA [3d2067],0.783
23,TATCCTTGTCGTAAGACACTTTGTGGGTTGA [3d1105],0.0549

row,Sequence,fraction ligated
1,TATCACTTTCGTAAGCACTTGGATGGGTTGA [3d1532],0.772
2,TATCACTGTCGTAAGCCTTTGGATGGGTTGA [3d1409],0.815
3,TTACTTGTCGTAAGACATTTGGATGGGTTGA [3d290],0.517
4,TATCATTGTCAAGACACTTTGGATGGGTTGA [3d1187],0.783
5,TATCACTGTCGTAAGACATTTGGATGGGTTA [3d1438],0.792
6,ATCACTTGTCGTAAGACACTTTGGTGGGTTA [3d268],0.00829
7,TATCACTGTCGTAGACCTTTGGATGGGTTGA [3d1389],0.837
8,TACACTTGTGTAAGACACTTTGGATGGTTGA [3d629],0.141
9,TATCACTTGTCGTAGACACTTTGATGGTTGA [3d2045],0.0405
10,TATCACTTGTGTAAGACCTTGGATGGGTTGA [3d1772],0.856
11,TATCACTTTCGTAAGCACTTTGATGGGTTGA [3d1533],0.784
12,TATCCTGTCGTAAGCACTTTGGATGGGTTGA [3d957],0.783
13,TATCACTTGTGTAAACACTTTGGATGGGTTG [3d1753],0.859
14,TACACTTGTCTAGACACTTTGGATGGGTTGA [3d633],0.195
15,TATCACTTGTCGTAAGAACTTTGGATGGGTTA [2d260],0.799
16,TATCACTTTCTAAGACCTTTGGATGGGTTGA [3d1484],0.783
17,TATCACTTGTCGAACACTTTGGATGGGTTGA [3d1903],0.802
18,TATCACTTGTCGTAAGCACTTTGGAGGGTTGA [2d250],0.157
19,TACCTTGTCGTAAGACACTTTGGAGGGTTGA [3d543],0.24
20,TATCATTGTCGTAAACACTTTGGATGGTTGA [3d1234],0.0592
21,TCACTTGTCGTAAGACCTTTGGATGGGTTGA [3d15],0.769
22,TACATTGTCGTAAGAACTTTGGATGGGTTGA [3d556],0.0064
23,TATCACTTGTCGTAGACACTTTGGATGGTTG [3d2056],0.452

row,Sequence,fraction ligated
1,TATCACTTGTCGTAAGACACTTGGTGGGTTGA [2d278],0.0691
2,TACACTTCGTAAGACACTTTGGATGGGTTGA [3d567],0.0399
3,ATCACTTGTCTAGACACTTTGGATGGGTTGA [3d172],0.734
4,TATCACTTGTCGTAAGCACTTGGTGGGTTGA [3d2130],0.0887
5,TATCACTTGTCGTGACACTTTGGATGGGTTGA [2d221],0.808
6,TATATTGTCGAAGACACTTTGGATGGGTTGA [3d763],0.376
7,TATCACTTGTCGTAGAACTTTGATGGGTTGA [3d2015],0.848
8,TATCACTTTCGTAAACACTTTGGTGGGTTGA [3d1524],0.0319
9,TATCACTTGTCGTAAGAATTTGGATGGTTGA [3d2156],0.208
10,TATCCTTGTCGTAAGACACTTTGGATGGTTGA [2d106],0.0489
11,TATCCTTGTCGAAGACATTTGGATGGGTTGA [3d1034],0.79
12,TATCACTTGTTAAACACTTTGGATGGGTTGA [3d1706],0.842
13,TATCACTTGTCTAAGACACTTTGGATGGGTTGA [1d11],0.818
14,TACACTTGCTAAGACACTTTGGATGGGTTGA [3d602],0.196
15,TCACTTGTGTAAGACACTTTGGATGGGTTGA [3d8],0.662
16,TATACTTGTTAAGACACTTTGGATGGGTTGA [3d828],0.793
17,TATCACTTGTCGTAGACACTTTGATGGGTTGA [2d228],0.789
18,TATCACTTGCGTAAGAATTTGGATGGGTTGA [3d1659],0.835
19,TATCACTTGTCGAAGACACTTTGTGGGTTGA [3d1965],0.0368
20,TAACTTGTCGTAAGACATTTGGATGGGTTGA [3d520],0.38
21,TATCACTTGCGTAAGACACTTTGGATGGTTGA [2d176],0.324
22,TATCCTTCGTAAGACACTTTGGATGGGTTGA [3d950],0.798
23,ATCACTTGTCGTAAGACATTTGGATGGGTTA [3d251],0.66

row,Sequence,fraction ligated
1,TATCACTTGTCGTAGACACTGGATGGGTTGA [3d2035],0.778
2,TACACTTGTCGTAAGACACTTTGGAGGGTTA [3d732],0.0323
3,TATCACTTGTCGTAAGACTTTGGATGGGTTGA [2d244],0.821
4,TATCATTGTCGAAGAACTTTGGATGGGTTGA [3d1204],0.809
5,TATCACTTTCGTAAGAACTTTGGATGGTTGA [3d1544],0.643
6,GGTATCACTTGTCGTAAGACACTTTGGATGTTGA [s36],0.000954
7,ATCACTTGTGTAAGACACTTTGGATGGGTTGA [2d9],0.853
8,TATCACTTTGAAGACACTTTGGATGGGTTGA [3d1465],0.819
9,TTCACTTGTCGTAAGCACTTTGGATGGGTTG [3d461],0.601
10,TATCACTTTCGAAGACACTTGGATGGGTTGA [3d1499],0.779
11,TTCACTTTCGTAAGACACTTGGATGGGTTGA [3d364],0.13
12,TATCACTTGTCGAAGACACTTGGATGGTTGA [3d1961],0.106
13,TATCACTTGTCGTAGACACTTGGATGGGTTA [3d2040],0.757
14,TACATTGTCGTAAGACACTTTGGATGGGTTGA [2d49],0.223
15,ATCACTTTCGTAAGCACTTTGGATGGGTTGA [3d129],0.766
16,TACACTTTCGTAAGACCTTTGGATGGGTTGA [3d592],0.0278
17,TATACTTGTCGTAAGACATTTGGATGGGTTG [3d924],0.714
18,TATCACTTGTCAAGACCTTTGGATGGGTTGA [3d1814],0.762
19,ATCACTTGTCGTAAGACACTTTGATGGGTTA [3d264],0.0628
20,TATATTGTCGTAAGACACTTGGATGGGTTGA [3d770],0.641
